These results are taken from publication doi:10.1101/2020.12.08.415968 (bioRxiv, 2020).

This experiment has as its target T1, SiRHP (sulfite reductase hemoprotein, full length, hydrogenated) (Escherichia coli, UniProt P17846 1-570).
T1 sequence (looked up): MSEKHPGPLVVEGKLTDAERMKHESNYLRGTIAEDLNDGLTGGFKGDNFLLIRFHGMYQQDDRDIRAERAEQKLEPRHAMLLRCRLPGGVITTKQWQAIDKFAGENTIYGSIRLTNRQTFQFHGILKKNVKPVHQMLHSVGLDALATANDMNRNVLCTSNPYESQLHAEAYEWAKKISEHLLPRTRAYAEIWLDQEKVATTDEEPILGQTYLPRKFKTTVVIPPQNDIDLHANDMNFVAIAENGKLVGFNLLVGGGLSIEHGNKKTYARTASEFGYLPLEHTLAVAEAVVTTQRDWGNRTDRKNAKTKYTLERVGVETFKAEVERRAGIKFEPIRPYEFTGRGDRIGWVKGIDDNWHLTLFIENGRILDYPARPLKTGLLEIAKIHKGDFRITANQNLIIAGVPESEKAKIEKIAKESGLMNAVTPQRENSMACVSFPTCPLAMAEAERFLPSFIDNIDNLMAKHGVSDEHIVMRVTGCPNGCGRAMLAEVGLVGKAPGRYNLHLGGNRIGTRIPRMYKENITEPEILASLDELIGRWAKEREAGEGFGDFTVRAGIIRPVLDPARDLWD
In words: AUC.

B1: SiRFP-60 (monomeric 60 kDa sulfite reductase flavoprotein, 52 N-terminal amino acids removed) (domain or fragment, Escherichia coli, UniProt P38038 53-599, looked up)
chain: ATPAPAAEMPGITIISASQTGNARRVAEALRDDLLAAKLNVKLVNAGDYKFKQIASEKLLIVVTSTQGEGEPPEEAVALHKFLFSKKAPKLENTAFAVFSLGDSSYEFFCQSGKDFDSKLAELGGERLLDRVDADVEYQAAASEWRARVVDALKSRAPVAAPSQSVATGAVNEIHTSPYSKDAPLVASLSVNQKITGRNSEKDVRHIEIDLGDSGMRYQPGDALGVWYQNDPALVKELVELLWLKGDEPVTVEGKTLPLNEALQWHFELTVNTANIVENYATLTRSETLLPLVGDKAKLQHYAATTPIVDMVRFSPAQLDAEALINLLRPLTPRLYSIASSQAEVENEVHVTVGVVRYDVEGRARAGGASSFLADRVEEEGEVRVFIEHNDNFRLPANPETPVIMIGPGTGIAPFRAFMQQRAADEAPGKNWLFFGNPHFTEDFLYQVEWQRYVKDGVLTRIDLAWSRDQKEKVYVQDKLREQGAELWRWINDGAHIYVCGDANRMAKDVEQALLEVIAEFGGMDTEAADEFLSELRVERRYQRDVY
On to B1, for which the binding result is listed as “binds”.
